According to paper PMC6405316 (Nature, 2019):
One block for each molecule: values may come before it.

Legend:
[1] = molecular target: KCTD12 H1 domain (residues 200–325) (human) (UniProt Q96CX2); assay: SEC
[2] = molecular target: KCTD16 BTB domain wild-type (residues 23–124), SMT3 tag cleaved with ULP1 (human, UniProt Q68DU8 23-124); assay: pull-down
[3] = molecular target: His6-SMT3-tagged KCTD16 BTB domain (residues 23–124) (human, UniProt Q68DU8 23-124); assay: pull-down
[4] = molecular target: His6-GST-tagged KCTD12 32–325 (human, UniProt Q96CX2 32-325); assay: pull-down
[5] = molecular target: KCTD16 21–279, His6-GST tag cleaved by 3C protease (human, UniProt Q68DU8 21-279); assay: SEC
[6] = molecular target: KCTD12 32–325, His6-GST tag cleaved by 3C protease (human, UniProt Q96CX2 32-325); assay: SEC
Chain of KCTD12 32–325, His6-GST tag cleaved by 3C protease (Q96CX2 32-325): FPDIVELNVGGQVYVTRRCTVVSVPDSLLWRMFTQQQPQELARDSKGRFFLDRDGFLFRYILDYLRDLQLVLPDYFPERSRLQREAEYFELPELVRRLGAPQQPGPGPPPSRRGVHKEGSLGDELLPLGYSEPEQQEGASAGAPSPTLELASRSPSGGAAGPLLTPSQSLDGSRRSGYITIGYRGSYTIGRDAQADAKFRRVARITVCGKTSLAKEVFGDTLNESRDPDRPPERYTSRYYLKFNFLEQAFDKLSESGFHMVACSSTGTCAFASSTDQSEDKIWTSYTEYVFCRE

Chain of KCTD16 21–279, His6-GST tag cleaved by 3C protease (Q68DU8 21-279): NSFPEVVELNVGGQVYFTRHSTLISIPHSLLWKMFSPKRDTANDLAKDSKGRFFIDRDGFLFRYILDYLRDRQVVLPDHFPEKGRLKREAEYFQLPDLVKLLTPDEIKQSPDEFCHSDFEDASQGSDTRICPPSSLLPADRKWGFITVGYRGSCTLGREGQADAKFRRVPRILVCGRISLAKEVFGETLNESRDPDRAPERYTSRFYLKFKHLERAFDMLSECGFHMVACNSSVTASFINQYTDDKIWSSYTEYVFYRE
Chain of KCTD16 BTB domain wild-type (residues 23–124), SMT3 tag cleaved with ULP1 (Q68DU8 23-124): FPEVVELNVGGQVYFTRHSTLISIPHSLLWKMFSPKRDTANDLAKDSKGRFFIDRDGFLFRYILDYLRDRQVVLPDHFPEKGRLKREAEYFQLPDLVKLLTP
Chain of His6-SMT3-tagged KCTD16 BTB domain (residues 23–124) (Q68DU8 23-124): as above
Chain of His6-GST-tagged KCTD12 32–325 (Q96CX2 32-325): as the sequence (Q96CX2 32-325) above
Chain of KCTD12 H1 domain (residues 200–325) (human) (Q96CX2 200-325): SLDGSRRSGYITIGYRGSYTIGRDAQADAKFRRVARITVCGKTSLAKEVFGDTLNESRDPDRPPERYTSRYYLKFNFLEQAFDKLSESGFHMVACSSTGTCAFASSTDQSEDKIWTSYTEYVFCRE

stoichiometry N (Gβγ per KCTD12H1 chain (5:5)) [1]: 1
Molecule: Human Gβ1γ2 heterodimer (His6-Gβ1, Gγ2 C68S) (from UniProt P62873;P59768) (complex)

binding result [4]: binds
Molecule: KDPIEDINSPEHIQRRLSLQLPILHHAYLPSIGGVDAS [His6-SUMO-tagged GABAB2 876–913]

More lines, now with the values behind:

Molecule: KDPIEDINSPEHIQRRLSLQLPILHHAYLPSIGGVDAS [His6-GST-tagged GABAB2 C-terminal fragment (residues 876–913)]
binding result [2]: binds
binding result [3]: binds

Molecule: KDPIEDINSPEHIQRRLSLQLPILHHAYLPSIGGVDAS [GABAB2 876–913, His6-SUMO tag cleaved by 3C protease]
binding result [5]: binds
binding result [6]: binds
